Patent US20250197505A1 (DREN BIO, published 2025)

Columns and labels:
[1] = target: T1, human CD94 expressed on cells (human primary NK cells in PBMCs; HEK cells expressing human CD94) (human, UniProt Q13241 1-179); assay: cell-based or functional assay
T1 sequence (looked up): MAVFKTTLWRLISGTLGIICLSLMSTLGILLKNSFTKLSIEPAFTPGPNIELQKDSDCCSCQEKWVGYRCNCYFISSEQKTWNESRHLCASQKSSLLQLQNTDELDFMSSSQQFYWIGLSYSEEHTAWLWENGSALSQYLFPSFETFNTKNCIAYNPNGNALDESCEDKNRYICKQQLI

[2] = target: T1, human CD94 expressed on cells (human …); assay: flow cytometry titration (100 nM to 0.046 nM) on primary NK cells in healthy donor PBMCs; human primary NK cells, flow cytometry titration
Protocol: Peripheral blood monocuclear cells (PBMCs) of healthy donor HD-40 were used for antibody staining. 18H3 antibody was titrated from 100 nM to 0.046 nM in 1:3 dilutions and incubated with PBMCs. CD3 and CD56 antibodies were used to identify NK cells on the flow scatter. 18H3 antibody binding on […] and CD56 bright NK cells was used to assess affinity of 18H3. Titration curves and EC50 were generated using Graphpad Prism. […] Human IgG1 isotype control with secondary antibody (hIgG1) and goat (Fab)2 fragment anti-human Fcy-specific secondary antibody AF647 only (2ndary Ab) were used as controls.
Healthy donor PBMCs were seeded in 96 well plates at a density of 100,000 cells per well, incubated with human Fc block (Biolegend) and cell viability dye (Thermo Fisher) for 30 minutes on ice and protected from light. […] After incubation, the cells received a final wash in FACS buffer before quantification on the Cytoflex (Beckman Coulter). All data acquisition and fluorescence compensation were performed using CytoFlex (Beckman Coulter, Atlanta, GA). […] CD94 expression was then quantified on the CD3−CD56+NK cell population. […]
The affinity of the antibody clones was also assessed by flow cytometry analysis.

[3] = target: T2, cynomolgus CD94 expressed on HEK293 cells (cynomolgus monkey, UniProt Q68VD4 1-179); assay: flow cytometry, cynomolgus CD94-expressing HEK293 cells
T2 construct: also called cyno-CD94; cynomolgus monkey CD94
T2 sequence: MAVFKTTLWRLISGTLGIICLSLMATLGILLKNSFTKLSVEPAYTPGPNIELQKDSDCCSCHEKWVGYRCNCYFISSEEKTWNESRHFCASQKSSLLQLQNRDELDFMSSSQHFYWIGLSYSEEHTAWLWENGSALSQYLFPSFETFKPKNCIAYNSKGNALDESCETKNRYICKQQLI
Source text: Anti-CD94 hybridoma supernatants were screened on cynomolgus CD94-expressing HEK293 cells by flow cytometry for cross-reactivity to cynomolgus CD94. HP-3D9 is a commercial anti-CD94 antibody that was used as a negative control. Mouse IgG1, IgG2a, IgG2b and IgG3 were used as negative controls. […] Commercially available anti-CD94 antibodies were used to test cynomolgus cross-reactivity. 18H3 was used as a positive control. The MFI of each antibody was normalized to the MFI of its respective isotype.
Cynomolgus CD94-expressing HEK293 cells were seeded in 96-well plates at a density of 100,000 cells per well, incubated with cell viability dye (Thermo Fisher) for 30 minutes on ice and protected from light. The cells were washed once with FACS buffer (PBS with 2% IgG low FBS). Hybridoma supernatants, anti-CD94 antibodies and isotype controls were incubated with cells for 30 minutes on ice and protected from light. […] After incubation, the cells received a final wash in FACS buffer before quantification on the Cytoflex (Beckman Coulter). All data acquisition and fluorescence compensation were performed using CytoFlex (Beckman Coulter, Atlanta, GA). […] CD94 expression was then quantified on this population. […]

B1: anti-CD94 antibody clone 18H3 (antibody, V domains shown)
VH: EVQLVQSGAEVKKPGESLKISCKGSGYRFTSYWIGWVRQMPGKGLEWMGIIYPGDSDTRYSPSFQGQVIISADKSITTAFLQWSSLKASDTAMYYCARPFDYGGSPGYFDYWGQGTLVTVSS
VL: DIQMTQSPSTLSASVGDRVTITCRASQSIRSWLAWYQQKPGKAPKLLIYKASSLESGVPSRFSGSGSGTEFTLTISSLQPDDFATYYCQQYNTFWTFGQGTKVEIK
notes: also called 18H3-AF647
percent decrease in MFI (antibody internalization assay), comparing 0.5 hours to 24 hours at 37° C. [1]: 24%
EC50 [2]: 2.6 nM
binding result [3]: binds
